Measured values as given in patent US20230313203A1.
“And” between values parts separate entries of the source, which are not always exact repeats. Equal entries are not always repeated. Where two headings read alike, the source gives them in different places.

Key:
Experiment in all cases: filter
[1] = biological target: SARS-CoV-2 spike S1 (Wuhan), His-tagged (SARS-CoV-2) (UniProt P0DTC2)
[2] = biological target: SARS-CoV-2 spike receptor binding domain (Wuhan) (SARS-CoV-2) (UniProt P0DTC2)
[3] = biological target: SARS-CoV-1 spike S1 (SARS-CoV-1) (UniProt P59594)
[4] = biological target: SARS-CoV-2 spike S1 (Wuhan), untagged (SARS-CoV-2) (UniProt P0DTC2)
[5] = first 20 nt DNA, rest FANA (T in random region is faU)
[6] = first 20 nt DNA, rest FANA (SEQ ID NO 17)
[7] = first 20 nt DNA, rest FANA (SEQ ID NO 1)
[8] = first 20 nt DNA, rest FANA (SEQ ID NO 3)

“AAAAGGTAGTGCTGAATTCGATTCTCGATTGATGGCATAAAAAGCATAGAATCGCAAGCAUUCGCUAUCCAGUUGGCCU [FANA-R8-7]” showed a Kd [1, 5] of 0.0312 µM and a Kd [2, 5] of 0.0628 µM.

“AAAAGGTAGTGCTGAATTCGCGAGCCCGCAUGAAAAGGGGAGAUAAAAAAUAUCUGUCGAUUCGCUAUCCAGUUGGCCU [FANA-R8-9]” gave a Kd [3] of 0.259 µM, a Kd [1] of 0.0147 µM and a Kd [4] of 0.0296 µM. For the same sequence, the Kd [2] was 0.0235 µM and 0.0196 µM.

Work on “AAAAGGTAGTGCTGAATTCGCGAGCCCGCAUGAAAAGGGGAGAUAUGCAAUAUCUGUCGAUUCGCUAUCCAGUUGGCCU [FANA-R8-22]” yielded a Kd [1, 6] of 0.0133 µM and a Kd [2, 6] of 0.0213 µM.

“AAAAGGTAGTGCTGAATTCGGGAGCTCGAACAGATGGGATAAAAAGCATAGCTCACCAATUUCGCUAUCCAGUUGGCCU [FANA-R8-15]” was tested, and the Kd [1, 5] was 0.0277 µM and the Kd [2, 5] was 0.0433 µM.

Work on “AAAAGGTAGTGCTGAATTCGGTCGCGATTAACATTAAACCGCATAAAAAGGGTGGCCGGAUUCGCUAUCCAGUUGGCCU [FANA-R8-3]” yielded a Kd [1, 5] of 0.0464 µM and a Kd [2, 5] of 0.0681 µM.

“AAAAGGTAGTGCTGAATTCGNNNNNNNNNNNNNNNNNNNNNNNNNNNNNNNNNNNNNNNNUUCGCUAUCCAGUUGGCCU [FANA-ST]” showed a Kd ([2]; first 20 nt DNA, rest 2'-fluoro-arabino (FANA)) of 1.7 µM.

In the case of “AAAAGGTAGTGCTGAATTCGUCGAACUAAACCGAAUUGAUGGCAUAAAAAGCAUGUUUAGUUCGCUAUCCAGUUGGCCU [FANA-R8-5]”, the Kd [1, 7] is reported as 0.0166 µM and the Kd [2, 7] is reported as 0.0264 µM.

In the case of “AAAAGGTAGTGCTGAATTCGUCGAACUAAUCCGAAUUGAUGGCAUAAAAAGCAUGUUUAGUUCGCUAUCCAGUUGGCCU [FANA-R8-17]”, the Kd [1, 8] is reported as 0.0191 µM and the Kd [2, 8] is reported as 0.0295 µM.
